Read-outs that look alike come from different tables or passages of the source.
Assays:
[1] = animal model; without adverse effects on body weight and adipose tissue mass; cited from earlier work
[2] = biological target: T1, rat prolactin receptor (Rattus norvegicus, UniProt P05710); settings: cited from earlier work
T1 construct: host or cells: rat hepatocytes
T1 sequence (P05710 20-310 isoform P05710-3 limits assumed): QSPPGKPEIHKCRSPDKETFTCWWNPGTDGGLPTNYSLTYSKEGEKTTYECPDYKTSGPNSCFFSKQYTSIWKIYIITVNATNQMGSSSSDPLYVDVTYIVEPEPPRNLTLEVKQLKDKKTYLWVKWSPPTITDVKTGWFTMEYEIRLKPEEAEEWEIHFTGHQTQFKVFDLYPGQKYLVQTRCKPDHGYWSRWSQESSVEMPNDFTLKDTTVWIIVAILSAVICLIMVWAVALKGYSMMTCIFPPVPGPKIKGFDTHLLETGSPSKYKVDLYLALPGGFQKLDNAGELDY

[3] = biological target: T2, GH receptors (Rattus norvegicus, UniProt P16310); settings: cited from earlier work
T2 construct: host or cells: rat hepatocytes
T2 sequence (P16310 19-638): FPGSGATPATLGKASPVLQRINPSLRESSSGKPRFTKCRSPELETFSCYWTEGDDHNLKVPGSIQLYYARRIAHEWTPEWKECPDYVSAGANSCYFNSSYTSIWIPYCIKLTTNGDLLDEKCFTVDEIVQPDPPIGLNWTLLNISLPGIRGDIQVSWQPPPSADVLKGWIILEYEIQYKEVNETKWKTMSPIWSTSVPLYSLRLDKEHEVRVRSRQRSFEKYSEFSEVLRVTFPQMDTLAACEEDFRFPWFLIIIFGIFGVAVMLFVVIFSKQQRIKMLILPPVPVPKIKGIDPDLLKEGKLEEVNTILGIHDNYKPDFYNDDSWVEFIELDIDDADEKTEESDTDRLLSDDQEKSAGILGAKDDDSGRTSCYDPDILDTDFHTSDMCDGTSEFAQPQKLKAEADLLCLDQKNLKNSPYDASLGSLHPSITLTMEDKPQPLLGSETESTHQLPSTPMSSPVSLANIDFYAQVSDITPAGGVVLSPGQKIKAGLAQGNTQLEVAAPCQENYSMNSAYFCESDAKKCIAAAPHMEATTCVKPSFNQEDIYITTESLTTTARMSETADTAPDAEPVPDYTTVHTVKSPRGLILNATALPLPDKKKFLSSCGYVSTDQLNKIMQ

[4] = overnight administration; lean and obese nondiabetic subjects, impaired glucose tolerance or type 2 diabetes; cited from earlier work
[5] = by inhibition of lipolysis; cited from earlier work
[6] = system: plasma leptin; assay: Plasma leptin; type: in vivo, Wistar rats; settings: compared to saline animals and animals that received GH and fibrate
Procedure: (§1) Blood samples were collected following overnight fast. Samples were collected from the tail vein and at termination following decapitation under halothane anaesthetic. Blood samples were collected into heparinised tubes and centrifuged for harvesting of plasma. Blood samples were then analysed for insulin, glucose, FFAs, leptin, IGF-I, glycerol, triglycerides, cholesterol, corticosterone, markers of hepatic function (ALT, AST, ALP), and for markers of protein synthesis.
(§2) Plasma FFAs, triglycerides and glycerol were measured by diagnostic kit (Boehringer-Mannheim #1383175 and Sigma #337 respectively). Plasma leptin, insulin were measured using commercially available kits (inco, St Charles, Mo., US). Plasma IGF-I was measured by RIA as described previously (Vickers et al., 2000). Plasma glucose concentrations were measured using a colorimetric plate assay. All other plasma analytes (liver enzymes, electrolytes, etc.) were measured by a BM/Hitachi 737 analyser by Agriquality Laboratory Services (Auckland, New Zealand).

[7] = system: plasma triglycerides; assay: Plasma triglycerides; type: in vivo, Wistar rats; settings: compared to saline controls
Procedure: as §1, §2

[8] = Tibial bone length, area and density by pQCT post-mortem; type: in vivo, Wistar rats; settings: for Fisher's PLSD for TRABECULAR, Mean Diff.: effect: treatment, significance level 5%
Procedure: (§3) Body lengths (nose-anus and nose-tail) and bone length (tibial, femoral length) was assessed post-mortem using peripheral quantitative computed tomography (PQCT, Stratec) analysis. Bone density was also assessed via pQCT.
Tibias were stored in 10% neutral buffered formalin. Tissue was stripped from the bone and bone length, area and density (cortical and trabecular) was assessed using pQCT (Stratec). […] Tibial length was highly correlated with total body (nose-anus) length (FIG. 5).

[9] = Body lengths (nose-anus) post-mortem and BMI; type: in vivo, Wistar rats
Procedure: as §3
A BMI was calculated using: body weight/nose-anus length (cm)2. […] Due to the lack of lipolysis in the GH and acipimox treated animals compared to GH treated, alterations in BMI probably reflect an enhancement of liner growth above that of GH alone.

[10] = system: plasma glucose; assay: Fasting plasma glucose; type: in vivo, Wistar rats; settings: compared to controls
Procedure: as §1, §2

[11] = Tissue studies: organ and fat depot weights at termination; type: in vivo, Wistar rats
Procedure: At termination animals were sacrificed by decapitation under halothane anaesthesia. Tissues (heart, liver, muscle and adipose (subcutaneous and visceral)) were collected, weighed and snap frozen in liquid nitrogen for subsequent analysis. An aliquot of liver tissue was also frozen at −20° C. for examining the growth hormone receptor using ligand-binding analysis.

[12] = Systolic blood pressure by tail cuff plethysmography; type: in vivo, Wistar rats; settings: SGA offspring
Procedure: Systolic and diastolic blood pressure and heart rate were recorded by tail cuff plethysmography according to the manufacturer's instructions (Blood pressure analyser IITC, Life Science, Woodland Hills, Calif., USA). Rats were restrained in a clear plastic tube in a heated room (25-28° C.). After 10-15 minutes acclimatisation the cuff was placed on the tail and inflated to 240 mmHg. Pulses were recorded during deflation at a rate of 3 mmHg/sec and reappearance of a pulse was used to determine systolic blood pressure. A minimum of 3 clear systolic blood pressure recordings were taken per animal. Previous observations indicate that the coefficient of variation for repeated measurements is <5%.

[13] = Blood hematocrit (marker of plasma volume / fluid retention); type: in vivo, Wistar rats; settings: compared to saline; AD and SGA groups
Text: A well-characterised effect of GH treatment is increased plasma volume (Johannsson et al, 2002). Decrease in blood hematocrit is a reliable marker of increase in plasma volume associated with fluid retentive effects of GH therapy.

[14] = system: plasma IGF-I; assay: Plasma IGF-I by RIA; type: in vivo, Wistar rats; settings: compared to saline controls; AD and SGA animals; at time of sacrifice
Procedure: as §1, §2

Molecule: CCCCCCCN(CCc1ccc(SC(C)(C)C(=O)O)cc1)C(=O)Nc1ccc(F)cc1F [GW9578]
- insulin resistance [1]: reduce insulin resistance

Molecule: CC(C)(Oc1ccc(C2CC2(Cl)Cl)cc1)C(=O)O (stereo not shown) [ciprofibrate]
- insulin resistance [1]: reduce insulin resistance

Molecule: hGH: human growth hormone, lactogenic and somatogenic in the rat
- binding to prolactin receptor (lactogenic binding sites) [2]: binding to both prolactin receptors and GH receptors
- binding to GH receptors (somatogenic binding sites) [3]: binding to both prolactin receptors and GH receptors

Molecule: Cc1cnc(C(=O)O)c[n+]1[O-] [acipimox, 5-methylpyrazinecarboxylic acid 4-oxide]
- insulin resistance [4]: reduce insulin resistance
- plasma FFA levels [4]: lower plasma FFA levels
- GH induced insulin resistance [5]: partially prevent

B1: GH: Recombinant bovine growth hormone, a pure somatogen in the rat, given subcutaneously at 5 mg/kg/day (protein, UniProt P01246 27-217, looked up)
Somatotropin: AFPAMSLSGLFANAVLRAQHLHQLAADTFKEFERTYIPEGQRYSIQNTQVAFCFSETIPAPTGKNEAQQKSDLELLRISLLLIQSWLGPLQFLSRVFTNSLVFGTSDRVYEKLKDLEEGILALMRELEDGTPRAGQILKQTYDKFDTNMRSDDALLKNYGLLSCFRKDLHKTETYLRVMKCRRFGEASCAF
- binding to prolactin receptor (lactogenic binding sites) [2]: not a ligand
- plasma leptin [6]: elevated
- Plasma triglycerides [7]: no significant effect
- Total bone density ([8]; pQCT): trend (p=0.056) towards to drop
- trabecular bone mass ([8]; pQCT, AD and SGA animals): significantly reduced
- Tibial length ([8]; pQCT, effect of treatment, AD and SGA): significantly increased
- Fisher's PLSD for TRABECULAR, Mean Diff. ([8]; versus GH/ACIP): −4.381
- Fisher's PLSD for TRABECULAR, Mean Diff. ([8]; versus GH/FIB): −10.613
- Fisher's PLSD for TRABECULAR, Mean Diff. ([8]; versus SALINE): −14.137
- BMI ([9]; compared to saline): not significantly different
- Nose anus lengths ([9]; post-mortem, effect of treatment): significantly increased
- Fasting plasma glucose [10]: not significantly altered
- Relative kidney weight ([11]; compared to saline controls): reduced
- retroperitoneal fat mass ([11]; compared to saline controls): significantly reduced
- Relative liver weight ([11]; relative to body weight, AD and SGA animals): no effect
- systolic blood pressure [12]: significantly reduced and normalised
- blood plasma hematocrit [13]: significantly reduced
- Plasma IGF-I [14]: significantly increased

— patent US20070037861A1, “Enhanced method of treatment of growth disorders” (PFIZER HEALTH AB, priority 2003, published 2007)
